The subject of the series is Escherichia coli TOP10. The experiment in a line: shrunken log2 fold change of peptide-encoding DNA abundance (4.5 h post-induction vs induction); higher = less antimicrobial activity (less host growth inhibition). The following applies: time post-induction: 4.5 h; library: site-saturation at positions 5, 18, 19, 20.

Here are results for 50 sequences from the supplement of paper PMC9112550, “Optimization of the antimicrobial peptide Bac7 by deep mutational scanning” (BMC Biology, 2022).
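Also: peptides expressed intracellularly from a pBAD plasmid library in pooled LB shake-flask culture, induced with 0.3% L-arabinose, DNA abundance read by NGS, three biological replicates, DESeq2 with apeglm shrinkage.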

In the case of RRIRYRPPRLPRPRPRPGYYPRP, the “shrunken log2 fold change” value was -0.545.
As for RRIRFRPPRLPRPRPRPEWGPRP, the “shrunken log2 fold change” value was determined as 0.186.
RRIRRRPPRLPRPRPRPHTHPRP: the “shrunken log2 fold change” value is -0.11.
Consider RRIRTRPPRLPRPRPRPNLKPRP, for which the “shrunken log2 fold change” value is -0.374.
Turning to RRIRERPPRLPRPRPRPRRHPRP, the “shrunken log2 fold change” value came out at 0.411.
The figure for RRIRSRPPRLPRPRPRPFNEPRP is -0.19; for RRIRNRPPRLPRPRPRPNMWPRP it is -0.274.
As to RRIRKRPPRLPRPRPRPKFGPRP, the “shrunken log2 fold change” value came out at 0.0786.
Consider RRIRGRPPRLPRPRPRPFDMPRP, for which the “shrunken log2 fold change” value was found to be 0.255.
RRIRKRPPRLPRPRPRPWTAPRP: the “shrunken log2 fold change” value is 0.00666.
With RRIRDRPPRLPRPRPRPPPIPRP, the “shrunken log2 fold change” value turned out to be 0.45.
As for RRIRSRPPRLPRPRPRPNKEPRP, the “shrunken log2 fold change” value worked out at 0.0328.
As for RRIRIRPPRLPRPRPRPMCPPRP, the “shrunken log2 fold change” value was -0.0137.
On to RRIRCRPPRLPRPRPRPKQPPRP, for which the “shrunken log2 fold change” value turned out to be 0.595.
On to RRIRNRPPRLPRPRPRPSCAPRP, for which the “shrunken log2 fold change” value is -0.0999.
As for RRIRTRPPRLPRPRPRPVQHPRP, the “shrunken log2 fold change” value is -0.217.
As for RRIRTRPPRLPRPRPRPMVTPRP, the “shrunken log2 fold change” value is 0.06.
Consider RRIRKRPPRLPRPRPRPTHSPRP, for which the “shrunken log2 fold change” value was determined as 0.168.
In the case of RRIRIRPPRLPRPRPRPGMQPRP, the “shrunken log2 fold change” value is -0.282.
As for RRIRNRPPRLPRPRPRPTVYPRP, the “shrunken log2 fold change” value is 0.0487.
Regarding RRIRTRPPRLPRPRPRPQHFPRP, the “shrunken log2 fold change” value was -0.0212.
Consider RRIRGRPPRLPRPRPRPGEPPRP, for which the “shrunken log2 fold change” value stood at 0.276.
As for RRIRHRPPRLPRPRPRPLALPRP, the “shrunken log2 fold change” value was -0.563.
Turning to RRIRRRPPRLPRPRPRPCVYPRP, the “shrunken log2 fold change” value was -0.42.
Consider RRIRKRPPRLPRPRPRPFEMPRP, for which the “shrunken log2 fold change” value was determined as 0.911.
For RRIRPRPPRLPRPRPRPYITPRP, the “shrunken log2 fold change” value was -0.739.
The figure for RRIRNRPPRLPRPRPRPALAPRP is 0.1; for RRIRRRPPRLPRPRPRPFKTPRP it is -0.0587.
RRIRMRPPRLPRPRPRPPMSPRP: the “shrunken log2 fold change” value was -0.114.
For the sequence RRIRGRPPRLPRPRPRPIGIPRP, the “shrunken log2 fold change” value is -0.159.
For RRIRQRPPRLPRPRPRPKCSPRP, the “shrunken log2 fold change” value was -0.0276.
Take RRIRIRPPRLPRPRPRPCLCPRP: the “shrunken log2 fold change” value is 2.05.
Then RRIRGRPPRLPRPRPRPELQPRP, with 2.19.
As for RRIRPRPPRLPRPRPRPSTFPRP, the “shrunken log2 fold change” value is 0.147.
Regarding RRIRQRPPRLPRPRPRPHCTPRP, the “shrunken log2 fold change” value stood at 0.157.
On to RRIRMRPPRLPRPRPRPNHCPRP, for which the “shrunken log2 fold change” value amounted to 0.0039.
For the sequence RRIRARPPRLPRPRPRPDQRPRP, the “shrunken log2 fold change” value was determined as 0.267.
As to RRIRARPPRLPRPRPRPTSIPRP, the “shrunken log2 fold change” value worked out at 0.109.
As to RRIRRRPPRLPRPRPRPWDGPRP, the “shrunken log2 fold change” value was 0.399.
Take RRIRYRPPRLPRPRPRPSRHPRP: the “shrunken log2 fold change” value was -0.649.
On to RRIRTRPPRLPRPRPRPYDAPRP, for which the “shrunken log2 fold change” value turned out to be 0.0888.
On to RRIRLRPPRLPRPRPRPNNKPRP, for which the “shrunken log2 fold change” value was -0.357.
RRIRMRPPRLPRPRPRPWEQPRP: the “shrunken log2 fold change” value was 0.0405.
On to RRIRIRPPRLPRPRPRPANQPRP, for which the “shrunken log2 fold change” value was -0.693.
The figure for RRIRFRPPRLPRPRPRPTCMPRP is -0.0546.
Take RRIRMRPPRLPRPRPRPRVTPRP: the “shrunken log2 fold change” value is 0.467.
RRIRPRPPRLPRPRPRPCNFPRP: the “shrunken log2 fold change” value is -0.129.
Then RRIRGRPPRLPRPRPRPNAGPRP, with 0.552.
As for RRIRRRPPRLPRPRPRPLPNPRP, the “shrunken log2 fold change” value is -0.0597.
For RRIRDRPPRLPRPRPRPKGPPRP, the “shrunken log2 fold change” value was -0.0184.
